Results reported in paper PMC9619061.
Values belong to the substance of their own block, whether it stands above or below them.

Experiments:
[1] = target: Coproheme decarboxylase from Geobacillus stearothermophilus (HemQ), His-tag partially cleaved (Geobacillus stearothermophilus); test: SEC; Superdex 200 10/300, 1 ml/min, 50 mM HEPES pH 7.5, 100 mM NaCl; elution volume compared with the mass of a pentamer
[2] = target: Coproheme decarboxylase from Geobacillus stearothermophilus (HemQ), His-tag partially cleaved (Geobacillus stearothermophilus); test: cryo-EM structure; single particle reconstruction, purified protein on glow-discharged gold Quantifoil R 1.2/1.3 grids, 50 mM HEPES pH 7.5, 100 mM NaCl; C5 and C1 symmetry
[3] = target: Coproheme decarboxylase from Geobacillus stearothermophilus (HemQ), His-tag present in all copies (Geobacillus stearothermophilus); test: SEC; Superdex 200 10/300, 1 ml/min, 50 mM HEPES pH 7.5, 100 mM NaCl; elution volume compared with the mass of a pentamer
[4] = target: Coproheme decarboxylase from Geobacillus stearothermophilus (HemQ), His-tag present in all copies (Geobacillus stearothermophilus); test: cryo-EM structure; single particle reconstruction, purified protein on glow-discharged gold Quantifoil R 1.2/1.3 grids, 50 mM HEPES pH 7.5, 100 mM NaCl; C5 and C1 symmetry
[5] = target: Coproheme decarboxylase from Geobacillus stearothermophilus (HemQ), His-tag completely cleaved (Geobacillus stearothermophilus); test: SEC; Superdex 200 10/300, 1 ml/min, 50 mM HEPES pH 7.5, 100 mM NaCl; elution volume compared with the mass of a pentamer
[6] = target: Coproheme decarboxylase from Geobacillus stearothermophilus (HemQ), His-tag completely cleaved (Geobacillus stearothermophilus); test: cryo-EM structure; single particle reconstruction, purified protein on glow-discharged gold Quantifoil R 1.2/1.3 grids, 50 mM HEPES pH 7.5, 100 mM NaCl; C5 and C1 symmetry

stoichiometry N [1]: 5
stoichiometry N [2]: 5
Substance: Coproheme decarboxylase from Geobacillus stearothermophilus (HemQ), His-tag partially cleaved (enzyme)

stoichiometry N [3]: 5
stoichiometry N [4]: 5
Substance: Coproheme decarboxylase from Geobacillus stearothermophilus (HemQ), His-tag present in all copies (enzyme)

stoichiometry N [5]: 5
stoichiometry N [6]: 5
Substance: Coproheme decarboxylase from Geobacillus stearothermophilus (HemQ), His-tag completely cleaved (enzyme)
